# Patent publication US20250163167A1 (SYNTHEKINE, published 2025)
# B1: IL10R binding molecule of SEQ ID NO: 347 (bispecific antibody)
# chain: QVQLQESGGGSVQTGGSLRLSCAASGYTYLRGCMGWFRQAPGKEREGVAVMDVVGDRRSYIDSVKGRFTISRDNAANSVYLQMDNLKPEDTAMYYCTAGPNCVGWRSGLDYWGQGTQVTVSSGGGSQVQLQESGGGSVQAGGSLRLSCAASRYLYSIDYMAWFRQSPGKEREPVAVIYTASGATFYPDSVKGRFTISQDNAKMTVYLQMNSLKSEDTAMYYCAAVRKTDSYLFDAQSFTYWGQGTQVTVSSASHHHHHH
# B2: IL10R binding molecule of SEQ ID NO: 351 (bispecific antibody)
# chain: QVQLQESGGGSVQTGGSLRLSCAASGYTYLRGCMGWFRQAPGKEREGVAVMDVVGDRRSYIDSVKGRFTISRDNAANSVYLQMDNLKPEDTAMYYCTAGPNCVGWRSGLDYWGQGTQVTVSSGGGSQVQLQESGGGSVQAGGSLRLSCTVSGYTYSSNCMGWFRQAPGKEREGVATIYTGGGNTYYADSVKGRFTISQDNAKNTVYLQMNNLKPEDTAMYYCAAEPLSRVYGGSCPTPTFDYWGQGTQVTVSSASHHHHHH
# B3: IL10R binding molecule of SEQ ID NO: 265 (bispecific antibody)
# chain: QVQLQESGGGSVQAGGSLRLSCAASRFTYSSYCMGWFRQAPGKEREGVASIDSDGSTSYTDSVKGRFTISKDNAKNTLYLQMNSLKPEDTAMYYCALDLMSTVVPGFCGFLLSAGMDYWGKGTQVTVSSGGGSQVQLQESGGGSVQAGGSLRLSCAASRYTYNSYCMGWFRQAPGKEREGVATIDSDGMTRYADSVKGRFTISKDNAKNTLYLQMNSLKPEDTAMYYCAADADCTIAAMTTNPLGQGTQVTVSSASHHHHHH
# B4: IL10R binding molecule of SEQ ID NO: 353 (bispecific antibody)
# chain: QVQLQESGGGSVQTGGSLRLSCAASGYTYLRGCMGWFRQAPGKEREGVAVMDVVGDRRSYIDSVKGRFTISRDNAANSVYLQMDNLKPEDTAMYYCTAGPNCVGWRSGLDYWGQGTQVTVSSGGGSQVQLQESGGGSVQAGGSLRLSCAASGYSNCSYDMTWYRQAPGKEREFVSAIHSDGSTRYADSVKGRFFISQDNAKNTVYLQMNSLKPEDTAMYYCKTDPLHCRAHGGSWYSVRANYWGQGTQVTVSSASHHHHHH
# B5: IL10R binding molecule of SEQ ID NO: 344 (bispecific antibody)
# chain: QVQLQESGGGSVQAGGSLRLSCAASGYSYSSYCMGWFRQAPGKEREGVATIDSDGMTRYADSVKGRFTISKDNAKNTLYLQMNSLKPEDTAMYYCAAPLYDCDSGAVGRNPPYWGQGTQVTVSSGGGSQVQLQESGGGSVQAGGSLRLSCTVSGYTYSSNCMGWFRQAPGKEREGVATIYTGGGNTYYADSVKGRFTISQDNAKNTVYLQMNNLKPEDTAMYYCAAEPLSRVYGGSCPTPTFDYWGQGTQVTVSSASHHHHHH
# B6: IL10R binding molecule of SEQ ID NO: 350 (bispecific antibody)
# chain: QVQLQESGGGSVQTGGSLRLSCAASGYTYLRGCMGWFRQAPGKEREGVAVMDVVGDRRSYIDSVKGRFTISRDNAANSVYLQMDNLKPEDTAMYYCTAGPNCVGWRSGLDYWGQGTQVTVSSGGGSQVQLQESGGGSVQAGGSLRLSCAVSGYAYSTYCMGWFRQAPGKEREGVAAIDSGGSTSYADSVKGRFTISKDNAKNTLYLRMNSLKPEDTAMYYCAAVPPPPDGGSCLFLGPEIKVSKADFRYWGQGTQVTVSSASHHHHHH
# B7: IL10R binding molecule of SEQ ID NO: 267 (bispecific antibody)
# chain: QVQLQESGGGSVQAGGSLRLSCAASRFTYSSYCMGWFRQAPGKEREGVASIDSDGSTSYTDSVKGRFTISKDNAKNTLYLQMNSLKPEDTAMYYCALDLMSTVVPGFCGFLLSAGMDYWGKGTQVTVSSGGGSQVQLQESGGGSVEAGGSLRLSCAASGYTHSSYCMGWFRQAPGKEREGVAAIDVDGSTTYADSVKGRFTISKDNAKNTLYLQMNSLKPEDTGMYYCAAEFADCSSNYFLPPGAVRYWGQGTQVTVSSASHHHHHH
# B8: IL10R binding molecule of SEQ ID NO: 348 (bispecific antibody)
# chain: QVQLQESGGGSVQTGGSLRLSCAASGYTYLRGCMGWFRQAPGKEREGVAVMDVVGDRRSYIDSVKGRFTISRDNAANSVYLQMDNLKPEDTAMYYCTAGPNCVGWRSGLDYWGQGTQVTVSSGGGSQVQLQESGGGSVQAGGSLRLSCAASRFTYSSYCMGWFRQAPGKEREGVASIDSDGSTSYTDSVKGRFTISKDNAKNTLYLQMNSLKPEDTAMYYCALDLMSTVVPGFCGFLLSAGMDYWGKGTQVTVSSASHHHHHH
# B9: IL10R binding molecule of SEQ ID NO: 345 (bispecific antibody)
# chain: QVQLQESGGGSVQAGGSLRLSCAASGYSYSSYCMGWFRQAPGKEREGVATIDSDGMTRYADSVKGRFTISKDNAKNTLYLQMNSLKPEDTAMYYCAAPLYDCDSGAVGRNPPYWGQGTQVTVSSGGGSQVQLQESGGGSVQAGGSLRLSCGASGYTYSSYCMGWFRQVPGKEREGVAVIDSDGSTSYADSVKGRFTISKDNGKNTLYLQMNSLKPEDTAMYYCAADLGHYRPPCGVLYLGMDYWGKGTQVTVSSASHHHHHH
# B10: IL10R binding molecule of SEQ ID NO: 352 (bispecific antibody)
# chain: QVQLQESGGGSVQTGGSLRLSCAASGYTYLRGCMGWFRQAPGKEREGVAVMDVVGDRRSYIDSVKGRFTISRDNAANSVYLQMDNLKPEDTAMYYCTAGPNCVGWRSGLDYWGQGTQVTVSSGGGSQVQLQESGGGSVQAGGSLRLSCGASGYTYSSYCMGWFRQVPGKEREGVAVIDSDGSTSYADSVKGRFTISKDNGKNTLYLQMNSLKPEDTAMYYCAADLGHYRPPCGVLYLGMDYWGKGTQVTVSSASHHHHHH
# B11: IL10R binding molecule of SEQ ID NO: 266 (bispecific antibody)
# chain: QVQLQESGGGSVQAGGSLRLSCAASRFTYSSYCMGWFRQAPGKEREGVASIDSDGSTSYTDSVKGRFTISKDNAKNTLYLQMNSLKPEDTAMYYCALDLMSTVVPGFCGFLLSAGMDYWGKGTQVTVSSGGGSQVQLQESGGGSVQAGGSLRLSCTVSRYTASVNYMGWFRQAPGKEREGVATIFTGAGTTYYANSVKGRFTISRDNAKNTAYLQMNSLKPEDTAIYYCAVDFRGGLLYRPAYEYTYRGQGTQVTVSSASHHHHHH
# B12: IL10R binding molecule of SEQ ID NO: 346 (bispecific antibody)
# chain: QVQLQESGGGSVQAGGSLRLSCAASGYSYSSYCMGWFRQAPGKEREGVATIDSDGMTRYADSVKGRFTISKDNAKNTLYLQMNSLKPEDTAMYYCAAPLYDCDSGAVGRNPPYWGQGTQVTVSSGGGSQVQLQESGGGSVQAGGSLRLSCAASGYSNCSYDMTWYRQAPGKEREFVSAIHSDGSTRYADSVKGRFFISQDNAKNTVYLQMNSLKPEDTAMYYCKTDPLHCRAHGGSWYSVRANYWGQGTQVTVSSASHHHHHH
# B13: IL10R binding molecule of SEQ ID NO: 349 (bispecific antibody)
# chain: QVQLQESGGGSVQTGGSLRLSCAASGYTYLRGCMGWFRQAPGKEREGVAVMDVVGDRRSYIDSVKGRFTISRDNAANSVYLQMDNLKPEDTAMYYCTAGPNCVGWRSGLDYWGQGTQVTVSSGGGSQVQLQESGGGSVQAGGSLRLSCAASGYTYSMYCMGWFRQAPGKEREGVAQINSDGSTSYADSVKGRFTISKDNAKNTLYLQMNSLKPEDTAMYYCAADSRVYGGSWYERLCGPYTYEYNYWGQGTQVTVSSASHHHHHH
# B14: IL10R binding molecule of SEQ ID NO: 268 (bispecific antibody)
# chain: QVQLQESGGGSVQAGGSLRLSCAASRFTYSSYCMGWFRQAPGKEREGVASIDSDGSTSYTDSVKGRFTISKDNAKNTLYLQMNSLKPEDTAMYYCALDLMSTVVPGFCGFLLSAGMDYWGKGTQVTVSSGGGSQVQLQESGGGSVQAGGSLRLSCAASGYSYSSYCMGWFRQAPGKEREGVATIDSDGMTRYADSVKGRFTISKDNAKNTLYLQMNSLKPEDTAMYYCAAPLYDCDSGAVGRNPPYWGQGTQVTVSSASHHHHHH
# B15: IL10R binding molecule of SEQ ID NO: 343 (bispecific antibody)
# chain: QVQLQESGGGSVQAGGSLRLSCAASGYSYSSYCMGWFRQAPGKEREGVATIDSDGMTRYADSVKGRFTISKDNAKNTLYLQMNSLKPEDTAMYYCAAPLYDCDSGAVGRNPPYWGQGTQVTVSSGGGSQVQLQESGGGSVQAGGSLRLSCAVSGYAYSTYCMGWFRQAPGKEREGVAAIDSGGSTSYADSVKGRFTISKDNAKNTLYLRMNSLKPEDTAMYYCAAVPPPPDGGSCLFLGPEIKVSKADFRYWGQGTQVTVSSASHHHHHH
# B16: IL10R binding molecule of SEQ ID NO: 264 (bispecific antibody)
# chain: QVQLQESGGGSVQAGGSLRLSCAASRFTYSSYCMGWFRQAPGKEREGVASIDSDGSTSYTDSVKGRFTISKDNAKNTLYLQMNSLKPEDTAMYYCALDLMSTVVPGFCGFLLSAGMDYWGKGTQVTVSSGGGSQVQLQESGGGSVQAGGSLRLSCAASGYTYSSYCMGWFRQAPGKEREGVAHIDSDGSTSYADSVKGRFTISKDNAKNTLYLQMNSLKPEDTAMYYCAADPIPGPGYCDGGPNKYWGQGTQVTVSSASHHHHHH
# Target: T1, human IL-10 receptor (hIL-10R alpha and beta chains) on HEK-Blue IL-10 reporter cells (human, UniProt Q13651 22-578; Q08334 20-325)
# T1 sequence 1: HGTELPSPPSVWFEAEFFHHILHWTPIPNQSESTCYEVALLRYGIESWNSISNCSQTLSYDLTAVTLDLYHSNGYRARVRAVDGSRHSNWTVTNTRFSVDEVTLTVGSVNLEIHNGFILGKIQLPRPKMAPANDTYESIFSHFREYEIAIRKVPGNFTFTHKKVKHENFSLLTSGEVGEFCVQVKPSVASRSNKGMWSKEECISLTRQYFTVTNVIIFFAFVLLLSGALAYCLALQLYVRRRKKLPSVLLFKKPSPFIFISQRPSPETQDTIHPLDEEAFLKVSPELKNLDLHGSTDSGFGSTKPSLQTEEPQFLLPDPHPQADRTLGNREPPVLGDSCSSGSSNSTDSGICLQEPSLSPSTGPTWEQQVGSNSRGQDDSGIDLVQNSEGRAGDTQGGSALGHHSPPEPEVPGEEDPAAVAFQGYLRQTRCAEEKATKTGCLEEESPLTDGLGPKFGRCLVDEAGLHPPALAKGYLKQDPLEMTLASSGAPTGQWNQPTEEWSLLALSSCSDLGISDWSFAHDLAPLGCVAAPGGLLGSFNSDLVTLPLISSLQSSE
# T1 sequence 2: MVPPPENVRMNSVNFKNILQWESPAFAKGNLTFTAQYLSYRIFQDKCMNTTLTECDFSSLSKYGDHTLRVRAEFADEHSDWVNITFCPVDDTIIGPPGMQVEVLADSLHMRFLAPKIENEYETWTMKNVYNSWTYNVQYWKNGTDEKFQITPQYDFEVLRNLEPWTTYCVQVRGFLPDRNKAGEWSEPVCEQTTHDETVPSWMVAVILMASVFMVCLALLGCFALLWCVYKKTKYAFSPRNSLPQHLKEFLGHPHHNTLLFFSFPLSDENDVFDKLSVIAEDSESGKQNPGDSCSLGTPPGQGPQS
# Test: cell-based or functional assay
Binder,Abs 630 (25 nM) [Abs 630],Abs 630 (100 nM) [Abs 630]
B1,0.45,0.35
B2,0.43,0.34
B3,0.54,0.46
B4,0.56,0.61
B5,0.5,0.43
B6,0.43,0.35
B7,0.75,0.53
B8,0.46,0.36
B9,0.52,0.44
B10,0.54,0.65
B11,0.49,0.39
B12,0.43,0.35
B13,0.46,0.38
B14,0.53,0.41
B15,0.46,0.37
B16,1.52,0.67
